According to US20080070264A1, “Intracellular Signaling-Induced Ret-Independent Gdnf Receptor-Effected Morphological Changes” (JPMORGAN CHASE BANK N.A., priority 2003, published 2008):

Legend:
MET = target: T1, MET (Chlorocebus aethiops, UniProt Q2IBA6); assay: 125I-labelled GDNF and HGF binding, chemical crosslinking, anti-MET immunoprecipitation; conditions: RET/GFRα1-expressing MDCK cells; data not shown
T1 construct: different combinations of the MET β-subunit (140 kDa), Met-αβ heterodimer (190 kDa) and HGF complexes; endogenous in cells; host or cells: COS7 cells (wild type for 125I-HGF; transfected with pc3-GFRα1/GFP for 125I-GDNF)
Description: Binding of ^125I-GDNF to COS7 cells transfected with GFRα1, and ^125-HGF to wild-type COS7, followed by cross-linking with EDC together with sulfo-NHS. Inmunoprecipitates with anti-MET antibodies (IP-Met) were analysed by SDS-PAGE under reducing conditions. ^125I-HGF α subunit and proHGF are marked by arrows. ^125I-HGF/MET complexes are denoted by arrow heads. The results are representative of five independent experiments.
GDNF and HGF were enzymatically iodinated with [^125I]NaI (Amersham Pharmacia Biotech) with lactoperoxidase to a specific activity of 100.000 cpm/ng as described (31). COS7 cells were transfected with pc3-GFRα1/GFP two days prior the assay. 2 nM of ^125I-GDNF or 1 nM of ^125I-HGF were allowed to bind to cell monolayers for 1-2 h on ice in binding buffer (DMEM/15 mM HEPES, pH 7.5; 0.2% BSA), washed, and chemically cross-linked for 30 min at room temperature using BS^3 ([Bis(sulfosuccinimidyl)suberate]), DSS ((Disulfosuccinimidyl)suberate), DSP (3,3-Dithio-bis-(sulfosuccinimidyl)propionate) or EDC ((1-Ethyl-3-[3-dimethylaminopropyl]carbodiimide Hydrochloride)) with sulfo-NHS (N-Hydroxysulfosuccinimide) (Pierce). The non-specific binding of GDNF was estimated by the amount of ^125I-GDNF binding to cells in the presence of 300 n M unlabeled GDNF. Cells were washed, lysed and immunoprecipitated with anti-MET antibodies as described. Gels were dried and analyzed by phosphorimaging in a BAS Reader 1800 (Fuji).

[1] = system: RET/GFRα1-expressing MDCK cells; assay: Boyden chamber cell migration and chemotaxis assay; type: cell-based, dog
Description: (§1) FIG. 3A: In Boyden chamber chemotaxis assays, mock-transfected, GFRα1-expressing and RET/GFRα1-expressing cells were exposed to GDNF, and wild-type MDCK to HGF. The number of cells was counted as described in Materials and Methods. +/+=GDNF at 100 ng/ml or HGF at 50 ng/ml was added to both chambers to assay chemokinesis. Each result represents the mean±SEM (n=3). For each case, p<0.001.
(§2) 5×10^4 MDCK cells (GFRα1-, RET/GFRα1-expressing and mock transfected) were suspended in 300 µl of MEM with 10% FCS and seeded into 24-well cell culture inserts with the filters (Boyden chambers), pore size 8 μm (Falcon). The assay was done as described (Tang et al., 1998). Briefly, GDNF or HGF was added to the upper, or both the upper and lower chambers at the marked concentrations. After 48 h incubation, non-migrated cells on the upper surface of the filters were scrapped. Membranes with the cells on the lower surface were washed with PBS, fixed by 3% glutaraldehyde in PBS, stained with May-Grünwald Giemsa (MGG) solution, dehydrated and mounted on the slides. Cells in eight fields of each membrane were counted under the light microscope (Magnification=100×). The average and standard error of the mean were calculated. Statistical significance of the differences was estimated by t-test.
(§3) Guided migration of cells towards a chemoattractant is referred to as chemotaxis, whereas enhanced cellular motility is called chemokinesis. Chemotaxis can be tested in the Boyden dual chamber assay by adding the test substance to the lower chamber only, and chemokinesis by adding test substance to both upper and lower chambers. […] Similarly, the chemotactic migration of RET/GFRα1co-expressing MDCK cells is stimulated by GDNF in the presence of soluble GFRα1 (Tang et al., 1998).

[2] = system: GFRα1-expressing, RET-deficient MDCK cells; assay: Boyden chamber cell migration and chemotaxis assay; type: cell-based, dog
Description: as §1, §2, §3

[3] = system: GFRα1-expressing, RET deficient MDCK cells; assay: Chemoattraction assay on collagen matrix with soaked agarose beads; type: cell-based, dog; conditions: beads soaked in GDNF 10 ng/μl; collagen I; 3 days
Description: (§4) FIG. 3B: Chemoattraction assay on collagen matrix. Only RET/GFRα1-expressing cells migrate towards GDNF-soaked agarose beads. BSA-soaked agarose beads were used as negative controls. Agarose beads are denoted by white circles. Note that mock transfected, GFRα1-expressing and RET/GFRα1-expressing cells form clusters of adherent cells (denoted by arrowhead) with BSA-soaked beads after 3 days, whereas RET/GFRα1 cells migrating towards GDNF bead are dissociated.
(§5) 3.5 cm dishes were coated with collagen I solution and 20,000 cells were seeded on the coated dish. GDNF-soaked agarose beads, prepared as described (Sainio et al., 1997), were put on the gel before it solidified. Cells around the beads were photographed daily.
(§6) In another chemotaxis assay, RET/GFRα1-, GFRα1- and mock-transfected MDCK cells were seeded on culture dishes coated with collagen I. Agarose beads were soaked in GDNF (10 ng/μl) or 1% BSA. A bead was placed on top of the soft collagen, and cells were monitored for 3 days.

[4] = system: RET/GFRα1-expressing MDCK cells; assay: as above; type: cell-based, dog; conditions: beads soaked in GDNF 10 ng/μl; collagen I; 3 days
Description: as §4, §5, §6

[5] = system: mock-transfected MDCK cells; assay: as above; type: cell-based, dog; conditions: beads soaked in GDNF 10 ng/μl; collagen I; 3 days
Description: as §4, §5, §6

[6] = GDNF 100 ng/ml added to both chambers

T1 sequence (Q2IBA6 25-1381): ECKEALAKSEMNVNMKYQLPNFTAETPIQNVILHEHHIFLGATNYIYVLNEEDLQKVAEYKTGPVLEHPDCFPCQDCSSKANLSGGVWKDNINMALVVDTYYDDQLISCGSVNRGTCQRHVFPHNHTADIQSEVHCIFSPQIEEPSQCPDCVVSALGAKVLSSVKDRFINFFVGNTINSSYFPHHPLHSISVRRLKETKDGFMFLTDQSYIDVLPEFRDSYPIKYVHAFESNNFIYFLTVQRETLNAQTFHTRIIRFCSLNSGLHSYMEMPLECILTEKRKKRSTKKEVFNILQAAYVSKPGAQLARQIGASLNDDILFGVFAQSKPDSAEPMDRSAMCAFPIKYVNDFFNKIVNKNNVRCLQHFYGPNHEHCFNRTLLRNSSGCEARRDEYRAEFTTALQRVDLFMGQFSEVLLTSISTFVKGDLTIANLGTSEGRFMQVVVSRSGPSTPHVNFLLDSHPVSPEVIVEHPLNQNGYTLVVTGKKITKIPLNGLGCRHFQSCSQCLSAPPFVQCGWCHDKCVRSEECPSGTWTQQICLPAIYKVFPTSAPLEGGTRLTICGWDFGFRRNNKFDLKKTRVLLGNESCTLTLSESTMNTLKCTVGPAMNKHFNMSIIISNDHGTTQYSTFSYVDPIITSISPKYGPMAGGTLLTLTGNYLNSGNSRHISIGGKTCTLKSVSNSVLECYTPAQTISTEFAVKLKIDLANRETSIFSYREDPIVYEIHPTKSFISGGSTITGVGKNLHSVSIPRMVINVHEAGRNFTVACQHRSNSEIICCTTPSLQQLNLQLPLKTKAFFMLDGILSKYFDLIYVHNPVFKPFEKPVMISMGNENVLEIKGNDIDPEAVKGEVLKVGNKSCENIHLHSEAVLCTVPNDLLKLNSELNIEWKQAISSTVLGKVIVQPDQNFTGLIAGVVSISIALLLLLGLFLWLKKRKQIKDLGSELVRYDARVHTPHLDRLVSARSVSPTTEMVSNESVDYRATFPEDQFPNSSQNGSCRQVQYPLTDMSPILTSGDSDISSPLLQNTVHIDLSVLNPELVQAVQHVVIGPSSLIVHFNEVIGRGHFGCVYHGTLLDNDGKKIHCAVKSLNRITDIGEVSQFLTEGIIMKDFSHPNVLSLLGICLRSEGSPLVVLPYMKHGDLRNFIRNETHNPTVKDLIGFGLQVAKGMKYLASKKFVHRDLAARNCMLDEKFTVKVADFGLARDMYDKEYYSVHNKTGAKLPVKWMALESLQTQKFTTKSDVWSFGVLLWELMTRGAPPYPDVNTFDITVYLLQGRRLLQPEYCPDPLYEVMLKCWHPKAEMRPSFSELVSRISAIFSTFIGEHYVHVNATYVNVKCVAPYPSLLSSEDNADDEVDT

B1: GDNF: recombinant glial cell line-derived neurotrophic factor from Cephalon Inc. (baculovirus-infected insect cells) or R&D Systems, Inc. (mouse myeloma NSO) (protein, UniProt P39905 78-211, looked up)
Glial cell line-derived …: SPDKQMAVLPRRERNRQAAAANPENSRGKGRRGQRGKNRGCVLTAIHLNVTDLGLGYETKEELIFRYCSGSCDAAETTYDKILKNLSRNRRLVSDKVGQACCRPIAFDDDLSFLDDNLVYHILRKHSAKRCGCI
- direct association of the GDNF receptor complex and MET (MET): no direct association
- chemotactic migration ([1]; Boyden chamber, 48 h): induced chemotactic migration
- migration with ligand in both chambers compared to the maximal chemotactic response (chemokinesis) [1, 6]: reduced threefold
- chemotactic response ([2]; Boyden chamber, 48 h): did not demonstrate a chemotactic response
- migration with ligand in both chambers (chemokinesis) [2, 6]: only slightly reduced
- migration towards soaked agarose bead [3]: Neither GFRα1-expressing, RET deficient cells nor mock-transfected cells, however, were attracted
- migration towards soaked agarose bead [4]: actively migrated towards the source of GDNF
- migration towards soaked agarose bead [5]: Neither GFRα1-expressing, RET deficient cells nor mock-transfected cells, however, were attracted
